Experimental data taken from patent publication US20090304687A1, “METHODS OF USING CD40 BINDING AGENTS” (Seattle Genetics , Inc., priority 2005, published 2009).
Entries after “also recorded” stand apart in the source; their conditions may differ.

What was measured:
[1] = test system: Ramos Burkitt's lymphoma cells; assay: Combination therapy with CHOP or prednisone, subcutaneous Ramos Burkitt's lymphoma in SCID mice; assay type: in vivo, C.B.-17 SCID mice
Procedure: To model localized lymphoma, 5×10^6 Ramos Burkitt's lymphoma cells were implanted subcutaneously into the right flank of C.B.-17 SCID mice (Harlan, Indianapolis, Ind.). Therapy was initiated when the mean tumor size in each group of five animals was 100 mm^3. CHOP was used for a single course, alone or in combination with humanized CD40 antibody (hu sgn-0; SGN-40), using the following dose schedule: cyclophosphamide at 30 mg/kg, i.v. qld x 1; doxorubicin at 2.475 mg/kg, i.v. qld x 1; vincristine at 0.375 mg/kg, i.v. qld x 1; and prednisone at 0.15 mg/kg, p.o. q1d x 5. The CD40 antibody was administered i.p. at 4 mg/kg q4d x 4 when used alone or in combination with prednisone or CHOP. Tumor size was determined using the formula (L×W^2)/2.
To compare the effect of SGN-40 treatment alone or in combination with CHOP or prednisone, SCID mice were subcutaneously implanted with Ramos cells, and dosed with SGN-40 alone or in combination with CHOP as described above. In addition, prednisone steroid was administered alone (0.15 mg/kg, qld x 5 po) or in combination with SGN-40 (4.0 mg/kg, q4d x 4 ip).

[2] = target: CD40 (Homo sapiens, UniProt P25942); assay: Binding of variant antibodies to CD40 immobilized on microassay plates; set-up: Binding Data 1 / Binding Data 2 / Binding Data 3: unit not given here
Procedure: Antibodies constructed using these variant light and heavy chain variable domains were analyzed for binding activity. Each antibody was diluted to equivalent concentrations, and then serially diluted. The diluted antibodies were assayed for binding to CD40 immobilized on microassay plates. Affinity binding data for the variant antibodies are shown below in Table 3.

[3] = test system: Ramos tumor cells; assay: SCID mouse lymphoma xenograft model, subcutaneous Ramos tumor growth; assay type: in vivo, SCID mice; settings: 4 mg/kg/dose i.p. 3 times per week, start 13 days after implant, 14-day study period
Procedure: The anti-tumor activity of the humanized CD40 antibody was assayed in a SCID mouse lymphoma xenograft model. Five million Ramos tumor cells were injected subcutaneously into SCID mice (10/group) thirteen days prior to starting drug treatment. Murine CD40 antibody or the humanized S2C6 was given intra-peritoneally 3 times per week (4 mg/kg/dose) with 8 or 5 doses administered. Mice were examined for tumor growth, and tumor volume was measured weekly during the 14-day study period. The results in FIG. 4 show a nearly 9-fold increase in the growth of tumors in control mice, whereas over the same time period, tumor growth in mice treated with either murine CD40 antibody or humanized S2C6 was negligible.

[4] = test system: Ramos tumor cells; assay: SCID mouse lymphoma xenograft model, intravenous Ramos cells, survival; assay type: in vivo; settings: 4 mg/kg/dose i.p. two times per week, five doses, 10 mice/group
Procedure: The efficacy of the humanized CD40 antibody on survival of tumor-bearing mice was assayed in a SCID mouse lymphoma xenograft model. SCID mice (10/group) were inoculated intravenously with one million Ramos tumor cells three days prior to antibody treatment. Mice were treated with murine or humanized CD40 antibody, or an Ig control, administered intraperitoneally two times per week (4 mg/kg/dose) for a total of five doses. The mouse cages were examined daily for mortality.

[5] = test system: human peripheral B cells; settings: Paulie et al., 1989; cited from earlier work
[6] = U.S. Pat. No. 6,838,261; cited from earlier work
[7] = target: CD40 and CD40L (Homo sapiens, UniProt P25942); settings: literature; cited from earlier work
[8] = test system: Ramos cells; assay: In vitro signaling in Ramos cells, western blot; assay type: cell-based; settings: 2% serum, antibody cross-linked with anti-human IgG, 15 min
Procedure: Humanized anti-CD40 antibody (Hu sgn-0; also referred to as SGN-40) binding to CD40^+ NHL cells activates signaling through the ERK1/2 MAP Kinase, p38 MAP Kinase, and NFkB pathways. Ramos cells (cultured in 2% serum) were stimulated with the humanized CD40 antibody cross-linked (XL) with anti-human IgG for 15 min. Activation of signaling was detected by western blot analysis with antibodies recognizing phosphorylation of ERK1/2 (Thr202/Tyr204), p38 (ThrlSO/Tyr182), and AKT (Ser473). NFkB activation was detected by measuring the degradation of IkB-a protein.

[9] = test system: Ramos cells; assay: Bid upregulation and PARP/caspase-3 cleavage in Ramos cells, western blot; assay type: cell-based
Procedure: In a further study, Ramos cells (2% FBS) were treated with cross-linked humanized CD40 antibody or control hIgG over a 72 hr time course ([…]). Normalized protein extracts were analyzed by western blotting analysis for the pro-apoptotic Bcl-2 family member Bid. […] Referring to FIG. 3B, degradation of the caspase-3/7 substrate poly(ADP-ribose) polymerase (cleaved-PARP) was monitored over time by western blotting with an antibody recognizing PARP cleaved at Asp214. Consistent with the apoptosis-inducing activity of the humanized CD40 antibody, cleavage of caspase-3 and its downstream substrate poly (ADP-ribose) polymerase was detected in NHL cell lines. Antibody-mediated signaling was qualitatively similar to that mediated by trimeric recombinant humanized CD40 ligand (rhCD40L) (data not shown). However, the overall magnitude of signaling was lower with the humanized CD40 antibody compared to rhCD40L, consistent with the partial agonistic properties of SGN-40.

[10] = test system: Ramos cells; assay: In vitro drug combinations with SGN-40, 3H-thymidine proliferation, Combination Index; assay type: cell-based
Procedure: Cells were treated for 72 hours, then labeled with ^3H-thymidine for 4 hours to measure proliferation rates. Dose response curves of drugs alone and in combination with the humanized CD40 antibody were reduced in Excel, and Combination Indices (CI) determined using the Calcusyn analysis package (Biosoft). […] CI values equal to 1.0 indicate an additive integration. For these studies, n=3 unless otherwise indicated.

[11] = test system: IM-9 cells; assay: IM-9 disseminated xenograft model, survival; assay type: in vivo, SCID mice; settings: data not shown
Procedure: Briefly IM-9 cells (1×10^6 per mouse) were introduced intravenously into SCID mice in a disseminated xenograft model. Animals were treated 3 days post tumor cell injection with either SGN-40(4.0 mg/kg, q2d x9, ip) or prednisone (0.15 mg/kg, qld x5, po) alone, or in combination. Survival data was plotted using a Kaplan-Meier curve (data not shown).

[12] = Phase I escalated dosing study in multiple myeloma patients, adverse events; assay type: in vivo, human
Procedure: An open-label, multi-dose, single arm, Phase I protocol initiated at five clinical sites. Initially, enrolled patients, diagnosed with multiple myeloma, received weekly intravenous infusions of a humanized CD40 antibody (hu sgn-0) with a cohort-specific dose level of 0.5, 1, 2 and 4 mg/kg/wk. […] Cohort specific doses of 3, 4, 6 and 8 mg/kg/week were used. The patient eligibility criteria included: patients must have failed at least two prior systemic therapies; at least four weeks since chemotherapy; patients who experience a minimal response (MR) or greater are eligible for a second cycle of therapy.
Patients were monitored for adverse events. […] The drug-loading period reduced the first-dose cytokine release syndrome.

[13] = Pharmacokinetics of SGN-40 in patients with multiple myeloma; assay type: in vivo, human; settings: for AUC0-50: Days 0 to 50, 1 compartment model fit; for T ½: after the last infusion, 1 compartment model fit; for Day 36 Cmin: trough 7 days after last dose; for Day 29 Cmax: serum, after last dose, mean ± SD
Procedure: The humanized CD40 antibody, SGN-40, was administered twice during the first week and once a week […] for the next 4 weeks to patients with multiple myeloma. […] The peak serum concentration (Cmax) of SGN-40 observed following the last dose on Day 29 and the subsequent trough levels 7 days later on Day 36 are shown for each cohort in Table 6. […] (n/a means not applicable.) […] Data are presented as the mean±standard deviation (N>3) with the exception of Cohort I Day 36 Cmin (N=2), and Cohort II, T1/2 and AUC0-50 (N-1). The patients maintained a plasma SGN-40 concentration of at least about 10 micrograms/ml.

[14] = target: CD40 immobilized on microassay plates (UniProt P25942 21-193, limits assumed); assay: serially diluted antibody on CD40 immobilized on microassay plates
Procedure: Antibodies constructed using these variant light and heavy chain variable domains were analyzed for binding activity. Each antibody was diluted to equivalent concentrations, and then serially diluted. The diluted antibodies were assayed for binding to CD40 immobilized on microassay plates.

Sequence of CD40 (P25942 21-277): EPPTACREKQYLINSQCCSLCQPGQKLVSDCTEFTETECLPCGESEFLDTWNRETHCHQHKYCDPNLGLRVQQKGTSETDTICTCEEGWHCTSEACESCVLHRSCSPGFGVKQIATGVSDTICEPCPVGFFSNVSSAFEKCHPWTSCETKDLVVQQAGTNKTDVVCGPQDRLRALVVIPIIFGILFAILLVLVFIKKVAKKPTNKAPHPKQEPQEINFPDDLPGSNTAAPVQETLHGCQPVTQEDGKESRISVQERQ
Sequence of CD40 immobilized on microassay plates (P25942 21-193 limits assumed): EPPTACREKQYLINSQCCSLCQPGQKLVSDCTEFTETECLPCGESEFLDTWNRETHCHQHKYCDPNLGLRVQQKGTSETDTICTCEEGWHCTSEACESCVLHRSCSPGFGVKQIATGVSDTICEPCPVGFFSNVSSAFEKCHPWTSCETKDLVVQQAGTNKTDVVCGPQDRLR
Sequence of CD40 and CD40L (P25942 21-277): as the sequence (P25942 21-277) above

Molecule: C[C@]12C=CC(=O)C=C1CC[C@@H]1[C@@H]2C(=O)C[C@@]2(C)[C@H]1CC[C@]2(O)C(=O)CO [prednisone]
- effect on tumor growth, administered alone ([1]; CHOP single course, prednisone 0.15 mg/kg p.o. q1d x 5): little effect
- efficacy in combination with humanized CD40 antibody (SGN-40) ([1]; SGN-40 4 mg/kg i.p. q4d x 4 plus CHOP or prednisone): greater efficacy

B1: SGN-14: parent murine monoclonal CD40 antibody (donor), heavy SEQ ID NO: 1, light SEQ ID NO: 12; ATCC PTA-110 (antibody, V domains shown)
VH: EVQLQQSGPDLVKPGASVKISCKASGYSFTGYYIHWVKQSHGKSLEWIGRVIPNNGGTSYNQKFKGKAILTVDKSSSTAYMELRSLTSEDSAVYYCAREGIYWWGHGTTLTVS
VL: DVVVTQTPLSLPVSLGAQASISCRSSQSLVHSNGNTFLHWYLQKPGQSPKLLIYTVSNRFSGVPDRFSGSGSGTDFTLKISRVEAEDLGVYFCSQTTHVPWTFGGGTKLEIQR
modifications: MusMusculus
- Binding Data 3 ([2]; affinity binding data, serially diluted antibody on immobilized CD40): 1.16
- binding activity compared with the parent murine antibody ([2]; in words): approaching that of the parent murine antibody; also recorded: more closely approaching that of the parent murine antibody
- tumor growth [3]: negligible
- mice alive 90 days after tumor implant [4]: eight of the ten
- activity on human peripheral B cells (primary B cell proliferation) [5]: stimulate primary B cell proliferation in a dose dependent manner
- anti-neoplastic activity in vivo [6]: anti-neoplastic activity in vivo
- effect on the interaction between CD40 and CD40L [7]: can increase the interaction between CD40 and CD40L

B2: hu sgn-0 (antibody, V domains shown)
VH: EVQLVESGGGLVQPGGSLRLSCAASGYSFTGYYIHWVRQAPGKGLEWVARVIPNNGGTSYNQKFKGRFTISRDNSKNTLYLQMNSLRAEDTAVYYCAREGIYWWGQGTLVTVS
VL: DIQMTQSPSSLSASVGDRVTITCRSSQSLVHSNGNTFLHWYQQKPGKAPKLLIYTVSNRFSGVPSRFSGSGSGTDFTLTISSLQPEDFATYYCSQTTHVPWTFGQGTKVEIKR
notes: also called SGN-40; Template
- AKT signaling [8]: modestly elevated
- cleavage of caspase-3 and poly (ADP-ribose) polymerase ([9]; NHL cell lines, western blot): detected
- Bid protein ([9]; Ramos cells 2% FBS, cross-linked antibody, 72 hr time course, 1.0 mg/ml mAb): upregulated Bid
- overall magnitude of signaling compared to rhCD40L ([9]; data not shown): lower
- effect on activity of chemotherapeutic agents [10]: enhances the activity of several chemotherapeutic agents
- tumor growth [3]: negligible
- mice alive 90 days after tumor implant [4]: all ten
- survival ([11]; SGN-40 4.0 mg/kg q2d x9 ip, 3 days post tumor cell injection): similarly effective in promoting survival
- efficacy with or without prednisone ([11]; prednisone 0.15 mg/kg qld x5 po): essentially the same in the presence or absence of prednisone
- symptoms of first dose-associated cytokine release after amended protocol (intra-patient dose escalation) ([12]; drug-loading period, Table 5 schema): markedly reduced
- antitumor activity ([12]; low doses tested thus far, multiple myeloma patients): preliminary evidence for antitumor activity
- TNF-alpha levels in the plasma ([12]; multiple myeloma patients): elevated following the first infusion only
- cytokine release ([12]; multiple myeloma patients): appeared to trigger cytokine release
- adverse event with the first dose ([12]; weekly i.v. infusion, 4 mg/kg level, multiple myeloma patients): Grade 3 cytokine release syndrome
- AUC0-50 ([13]; Cohort I (1,1,2,3,3,3)): 653.93 ± 154.65 µg·days/mL
- T ½ ([13]; Cohort I (1,1,2,3,3,3)): 64.1 ± 25.9 h
- Day 36 Cmin ([13]; Cohort I (1,1,2,3,3,3), N=2): 9.94 µg/mL
- Day 29 Cmax ([13]; Cohort I (Day 1/4/8/15/22/29: 1,1,2,3,3,3)): 45.40 ± 14.31 µg/mL
- AUC0-50 ([13]; Cohort II (1,1,2,4,4,4)): 2086.02 µg·days/mL
- T ½ ([13]; Cohort II (1,1,2,4,4,4)): 111 h
- Day 36 Cmin ([13]; Cohort II (1,1,2,4,4,4)): 69.93 ± 14.08 µg/mL
- Day 29 Cmax ([13]; Cohort II (Day 1/4/8/15/22/29: 1,1,2,4,4,4)): 143.00 ± 27.78 µg/mL
- AUC0-50 ([13]; Cohort III (1,1,2,4,6,6)): 1988.88 ± 439.74 µg·days/mL
- T ½ ([13]; Cohort III (1,1,2,4,6,6)): 92.4 ± 32.9 h
- Day 36 Cmin ([13]; Cohort III (1,1,2,4,6,6)): 41.57 ± 19.22 µg/mL
- Day 29 Cmax ([13]; Cohort III (Day 1/4/8/15/22/29: 1,1,2,4,6,6)): 149.25 ± 29.34 µg/mL
- AUC0-50 ([13]; Cohort IV (1,1,2,4,6,8)): 3441.73 ± 1382.79 µg·days/mL
- T ½ ([13]; Cohort IV (1,1,2,4,6,8)): 129 ± 44.2 h
- Day 36 Cmin ([13]; Cohort IV (1,1,2,4,6,8)): 112.84 ± 50.40 µg/mL
- Day 29 Cmax ([13]; Cohort IV (Day 1/4/8/15/22/29: 1,1,2,4,6,8)): 244.25 ± 96.00 µg/mL
- plasma SGN-40 concentration maintained ([13]; multiple myeloma patients): at least 10 micrograms/ml
- Binding Data 1 [14]: 75.3
- Binding Data 2 [14]: 75.3
